{"source": "the nanobody polyreactivity screen of Harvey et al. (2022)"}
{"test": "yeast display, Sf9 membrane polyspecificity reagent, FACS + sequencing; frameworks hold sequencing errors", "procedure,_shortened": "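Nanobodies from a synthetic yeast display library (Saccharomyces cerevisiae BJ5465), induced 36–48 hours with galactose, were stained 1 hour at 4 °C with 10% biotinylated, detergent-solubilized Sf9 membrane reagent, enriched on streptavidin microbeads, then FACS-sorted. Anti-HA (expression) and streptavidin (reagent binding) fluorescence set low and high (top ~1%) gates. Polyreactivity labels come from the gate of origin. Genes were colony-PCR amplified, MiSeq 2 × 250 sequenced and filtered by CDR length.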"}
{"sequence": "QVQLVESGGGLVQAGGSLRLSCAASGIIFDRYAMGWYRQAPGKERELVAAITRSGGRTYYADSVKGRFTISRDNAKNTVYLQMNSLKPEDTAVYYCNAYRSALYPPEYDYWGQGTQVTVSS", "polyreactivity (PSR sort gate)": "high polyreactivity"}
{"sequence": "QVQLVESGGGLVQAGGSLRLSCAASGSTFYLNAMGWYRQAPGKERELVAVITRSGGNTYYADSVKGRFTISRDNAKNTVYLQMNSLKPEDTAVYYCNKRPTGGKYEYWGQGTQVTVSS", "polyreactivity (PSR sort gate)": "high polyreactivity"}
{"sequence": "QVQLVETGGGLDQAGGSLRLSCAASGRTFLLYAMGWYRQAPGKERELVARITGRGGRTYYADSVKGRFTISRDNAKNTVYLQMNSLKPEDTAVYYCNAKGYQGQWERYDYWGQGTEVTVSS", "polyreactivity (PSR sort gate)": "high polyreactivity"}
{"sequence": "QVQLVESGGGLVQAGGSLRLSCAASGGTFRLYAMGWYRQAPGKERELVAAISGRGGSTYYADSVKGRFTISRDNAKNTVYLQMNSLKPEDTAVYYCARYRRGKMDYWGQGTQVTVSS", "polyreactivity (PSR sort gate)": "high polyreactivity"}
{"sequence": "QVQLVESGGGLVQAGGSLRLSCAASGIFPYNAMGWYRQAPGKERELVAAITWSDGSTYYADSVKGRFTISRDNAKNTVYLQMNSLKPEDTAVYYCNTYRNPAEDYWGQGTQVTVSS", "polyreactivity (PSR sort gate)": "low polyreactivity"}
{"sequence": "QVQLVESGGGLVQAGGSLRLSCAASGRIFEEYVMGWYRQAPGKERELVAAISFSGSRTYADSVKGRFTISRDNAKNTVYLQMNSLKPEDTAVYYCAADPSISYDYWGQGTQVTVSS", "polyreactivity (PSR sort gate)": "low polyreactivity"}
{"sequence": "QVQLVESGGGLVQAGGSLRLSCAASGSTLANYAMGWYRQAPGKERELVAAINSGGSTYYADSVKGRFTISRDNAKNTVYLQMNSLKPEDTAVYYCAAETPNYYGRWEPVWHYYWGQGTQVTVSS", "polyreactivity (PSR sort gate)": "high polyreactivity"}
{"sequence": "QVQLVESGGGLVQAGGSLRLSCAASGSTLTRHAMGWYRQAPGKERELVAAITSGGRTKYADSVKGRFTISRDNAKYTVYLHMNSLKPEDTAVYYCAKGGPPGQRGYDYWGQGTQVTVSS", "polyreactivity (PSR sort gate)": "high polyreactivity"}
{"sequence": "QVQLVESGRGLVQAGGSLRLSCAASGSMFGKHVMGWYRQAPGKERELVAAISRSGGRTYYADSVKGRFTISRDNANNTVYLQMNTLKPEDTAVYYCAADGQPIGQQTYDYWGQGTQVTVSS", "polyreactivity (PSR sort gate)": "high polyreactivity"}
{"sequence": "QVQLVESGGGLVKAGGSLRLTCAASGIILRANVMGWYRQAAGKERELLAAISGSGGRTYYADSVKGRFTISRDNAKNSVYLPMNSLKPEDTAVYYCNTPYGLHQAYPYDYWGLGTQVTVSS", "polyreactivity (PSR sort gate)": "high polyreactivity"}
{"sequence": "QVQLVESGGGLVQAGGSLRLSCAASGIIFRGNAMGWYRQEPGKESEIVAAISLRGSRTYYADSVKGRFTISRDNAKNTVYLQMNSLKPEDSAVYYCNARGGTSPFGSDYWGQGTQVTVSS", "polyreactivity (PSR sort gate)": "high polyreactivity"}
{"sequence": "QVQLVESGGGLVQAGGSLRLSCPASGSTFRHYVMGRYRQAPGKERELVAAINWTSGSTNYADSVKGRFTISRDNAKNTVYFQMNSLKPEDTAVYYCAARGPVGYGWRYRPWHDYWGQGTQVTVSS", "polyreactivity (PSR sort gate)": "high polyreactivity"}
{"sequence": "QVQLVESGGGLVQAGGSLRISCAASGSTFEYYAMGWYRQAPGKERELVATISIDGRTNYADSVKGRFTISRDNAKNTVYLQMNSLKPEDTAVYYCAARPYWRHRYDYWGQGTQVTVSS", "polyreactivity (PSR sort gate)": "low polyreactivity"}
{"sequence": "QVQLVESGGGLVQAGGSLRLSCAASGSTFVFYVMVWYRQAPGKERQLVAAITGSTTSTYYAVSVKGRFTISRDNAKNTVYLQMNSLKPEDTAVYYCAAEVLRGRGFGYWGQGTQVCVSS", "polyreactivity (PSR sort gate)": "high polyreactivity"}
{"sequence": "QVKLVESGGGLVQAGGSLRLSCAASGFTFTQYGLGWNRQAPGKEREFVATIRFSGDNTYYADSVKGRFTISRDNAKNTVYLQMNSLKPEDTAVYYCNADNRAFFVYPVSKRYDSWGQGTQVTVSS", "polyreactivity (PSR sort gate)": "low polyreactivity"}
{"sequence": "QVQLVESGGGLVQAGGSLRLSCAASGRTFDTYAMGWYRQAPWKERELVAAITRRTYYADSVKGRFTISRDNAKNSVYLQMNSLKPEDTAVYYCAVRFLRKWTSSRHYGYWGQGTQVTVSS", "polyreactivity (PSR sort gate)": "high polyreactivity"}
{"sequence": "QVQLVESGGGLVQAGGSLRLSSAASGSTLQYNAMGWYRQAPGKERELVASITWSDGSTYYADSVKGRFTISRDNAKNTVYLQMNSLKPEDTAVYYCNRDDQPALWSSGGYNYWGQGTQVTVSS", "polyreactivity (PSR sort gate)": "high polyreactivity"}
